Test results published in the supplement of paper PMC10598134.
± gives the standard deviation.

Assay: collision cross section of modified peptide (TIMS, N2, iRT-aligned); higher = larger / more extended gas-phase ion
Method in brief: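 Collision cross section was derived from the Mason-Schamp equation. Each value averages 1–3 technical replicates of the most abundant feature per charge state, measured on a timsTOF Pro/HT in dda-PASEF mode (nitrogen, ~2.4 mbar) after a 120-min nanoflow C18 gradient at 60 °C. Synthetic peptide pools (~100 fmol/µL in 2% acetonitrile/0.1% formic acid, iRT standard spiked 1:40) were identified with MaxQuant, and 1/K0 was calibrated with three reference ions and aligned run-wise to the median iRT peptide deviation.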

[1] = charge state: 3, modification: Methyl (R)
[2] = charge state: 2, modification: hydroxyisobutyryl
[3] = charge state: 3, modification: hydroxyisobutyryl
[4] = charge state: 2, modification: Acetyl (K)
[5] = charge state: 2, modification: Butyryl
[6] = charge state: 3, modification: Butyryl
[7] = charge state: 2, modification: Formyl
[8] = charge state: 3, modification: Formyl
[9] = charge state: 2, modification: Biotin
[10] = charge state: 3, modification: Dimethyl (K)
[11] = charge state: 2, modification: GlyGly (K)
[12] = charge state: 3, modification: GlyGly (K)
[13] = charge state: 2, modification: Crotonyl
[14] = charge state: 2, modification: Dimethyl (K)
[15] = charge state: 2, modification: Succinyl

GGNFGGRGGYGGGGGGSR [_GGNFGGR(Methyl (R))GGYGGGGGGSR_]
collision cross section [1]: 462.43 ± 2.7 Å²

ASDTSSETVFGKR [_ASDTSSETVFGK(hydroxyisobutyryl)R_]
collision cross section [2]: 403.06 ± 1.1 Å² | collision cross section [3]: 485.06 ± 0.47 Å²

GSLGAQKLANTCFNEIEK [_GSLGAQK(Acetyl (K))LANTCFNEIEK_]
collision cross section [4]: 470.8 Å²

VNIGQGSHPQKVK [_VNIGQGSHPQK(hydroxyisobutyryl)VK_]
collision cross section [2]: 435.4 ± 0.33 Å² | collision cross section [3]: 488.96 ± 2.8 Å²

VTLEVGKVIQQGR [_VTLEVGK(Butyryl)VIQQGR_]
collision cross section [5]: 412.79 ± 0.23 Å² | collision cross section [6]: 483.04 ± 1.9 Å²

VGIDTPDIDIHGPEGKLK [_VGIDTPDIDIHGPEGK(Formyl)LK_]
collision cross section [7]: 485.77 ± 1.5 Å² | collision cross section [8]: 533.35 ± 1.3 Å²

PSVSTKLISK [_PSVSTK(Biotin)LISK_]
collision cross section [9]: 375.49 Å²

SKHLQEQLNELK [_SK(Dimethyl (K))HLQEQLNELK_]
collision cross section [10]: 492.51 ± 0.54 Å²

IPQEKCILQTDVK [_IPQEK(GlyGly (K))CILQTDVK_]
collision cross section [11]: 446.01 ± 0.95 Å² | collision cross section [12]: 482.94 ± 1.1 Å²

DLGKFQVATDALK [_DLGK(Crotonyl)FQVATDALK_]
collision cross section [13]: 409.72 ± 0.55 Å²

SSGPGGQNVNKVNSK [_SSGPGGQNVNK(Butyryl)VNSK_]
collision cross section [5]: 405.84 ± 0.57 Å² | collision cross section [6]: 443.95 ± 2 Å²

SDSGKPYYYNSQTK [_SDSGK(Methyl (K))PYYYNSQTK_]
collision cross section (charge state: 2, modification: Methyl (K)): 422.21 Å² | collision cross section (charge state: 3, modification: Methyl (K)): 475.71 ± 2.9 Å²

IGAEVYHHLK [_IGAEVY(Nitro (Y))HHLK_]
collision cross section (charge state: 2, modification: Nitro (Y)): 375.15 ± 0.55 Å² | collision cross section (charge state: 3, modification: Nitro (Y)): 440.09 ± 1.8 Å²

LLIVSTTPYSEKDTK [_LLIVSTTPYSEK(Dimethyl (K))DTK_]
collision cross section [14]: 459.41 ± 1.9 Å² | collision cross section [10]: 505.24 ± 1.6 Å²

GSGLGARGSSYGVTSTESYK [_GSGLGAR(Citrullination (R))GSSYGVTSTESYK_]
collision cross section (charge state: 2, modification: Citrullination (R)): 458.29 ± 0.18 Å² | collision cross section (charge state: 3, modification: Citrullination (R)): 548.1 Å²

FDDTNPEKEEAK [_FDDTNPEK(Formyl)EEAK_]
collision cross section [7]: 390.88 ± 0.55 Å² | collision cross section [8]: 435.1 Å²

LFVGGIKEDTEEHHLR [_LFVGGIK(Formyl)EDTEEHHLR_]
collision cross section [8]: 535.03 ± 1.3 Å²

IVEKYGYTHLSAGELLR [_IVEK(Acetyl (K))YGYTHLSAGELLR_]
collision cross section (charge state: 3, modification: Acetyl (K)): 562.4 ± 1.8 Å²

PGPKGEAGPTGPQGEPGVR [_P(Hydroxyproline)GPKGEAGPTGPQGEPGVR_]
collision cross section (charge state: 2, modification: Hydroxyproline): 432.55 ± 0.34 Å² | collision cross section (charge state: 3, modification: Hydroxyproline): 487.03 ± 3.2 Å²

IPPTYQIR [_IPPTY(Phospho (Y))QIR_]
collision cross section (charge state: 2, modification: Phospho (Y)): 350.25 ± 0.066 Å²

SGNLTEDDKHNNAK [_SGNLTEDDK(Propionyl)HNNAK_]
collision cross section (charge state: 2, modification: Propionyl): 423.13 ± 0.36 Å² | collision cross section (charge state: 3, modification: Propionyl): 471.16 Å²

GAEKTEVAEPR [_GAEK(Gluratylation)TEVAEPR_]
collision cross section (charge state: 2, modification: Glutarylation): 362.79 ± 0.71 Å²

SLKLNTAEDAK [_SLK(Biotin)LNTAEDAK_]
collision cross section [9]: 397.96 Å²

IPQEKCILQTDVK [_IPQEK(Formyl)CILQTDVK_]
collision cross section [7]: 427.41 Å²

GIGRGTVQALHATGAR [_GIGR(Methyl (R))GTVQALHATGAR_]
collision cross section [1]: 502.48 ± 1.9 Å²

SLGEPAAGEGSAKR [_SLGEPAAGEGSAK(Trimethyl (K))R_]
collision cross section (charge state: 2, modification: Trimethyl (K)): 404.92 ± 19 Å² | collision cross section (charge state: 3, modification: Trimethyl (K)): 462.02 ± 2.7 Å²

VTLEVGKVIQQGR [_VTLEVGK(Succinyl)VIQQGR_]
collision cross section [15]: 412.33 ± 0.54 Å² | collision cross section (charge state: 3, modification: Succinyl): 481.23 ± 2 Å²

VNIGQGSHPQKVK [_VNIGQGSHPQK(Malonyl)VK_]
collision cross section (charge state: 2, modification: Malonyl): 424.04 ± 0.57 Å²

ILDLKTGTVK [_ILDLK(Succinyl)TGTVK_]
collision cross section [15]: 362.99 ± 0.74 Å²

VNALKNLQVK [_VNALK(Crotonyl)NLQVK_]
collision cross section [13]: 376.57 ± 0.8 Å²

DTPTSAGPNSFNKGK [_DTPTSAGPNSFNK(Acetyl (K))GK_]
collision cross section [4]: 406.79 ± 1.5 Å²

LLIVSTTPYSEKDTK [_LLIVSTTPYSEK(GlyGly (K))DTK_]
collision cross section [11]: 461.81 ± 0.94 Å² | collision cross section [12]: 515.54 ± 1.1 Å²

LEEVTGKLQVAR [_LEEVTGK(Dimethyl (K))LQVAR_]
collision cross section [14]: 394.61 ± 0.25 Å² | collision cross section [10]: 471.08 ± 2.1 Å²
